This assay concerns the target T1, D3 fragment of DROSHA (amino acids 390–1365) (human, UniProt Q9NRR4 390-1365).
T1 sequence (looked up): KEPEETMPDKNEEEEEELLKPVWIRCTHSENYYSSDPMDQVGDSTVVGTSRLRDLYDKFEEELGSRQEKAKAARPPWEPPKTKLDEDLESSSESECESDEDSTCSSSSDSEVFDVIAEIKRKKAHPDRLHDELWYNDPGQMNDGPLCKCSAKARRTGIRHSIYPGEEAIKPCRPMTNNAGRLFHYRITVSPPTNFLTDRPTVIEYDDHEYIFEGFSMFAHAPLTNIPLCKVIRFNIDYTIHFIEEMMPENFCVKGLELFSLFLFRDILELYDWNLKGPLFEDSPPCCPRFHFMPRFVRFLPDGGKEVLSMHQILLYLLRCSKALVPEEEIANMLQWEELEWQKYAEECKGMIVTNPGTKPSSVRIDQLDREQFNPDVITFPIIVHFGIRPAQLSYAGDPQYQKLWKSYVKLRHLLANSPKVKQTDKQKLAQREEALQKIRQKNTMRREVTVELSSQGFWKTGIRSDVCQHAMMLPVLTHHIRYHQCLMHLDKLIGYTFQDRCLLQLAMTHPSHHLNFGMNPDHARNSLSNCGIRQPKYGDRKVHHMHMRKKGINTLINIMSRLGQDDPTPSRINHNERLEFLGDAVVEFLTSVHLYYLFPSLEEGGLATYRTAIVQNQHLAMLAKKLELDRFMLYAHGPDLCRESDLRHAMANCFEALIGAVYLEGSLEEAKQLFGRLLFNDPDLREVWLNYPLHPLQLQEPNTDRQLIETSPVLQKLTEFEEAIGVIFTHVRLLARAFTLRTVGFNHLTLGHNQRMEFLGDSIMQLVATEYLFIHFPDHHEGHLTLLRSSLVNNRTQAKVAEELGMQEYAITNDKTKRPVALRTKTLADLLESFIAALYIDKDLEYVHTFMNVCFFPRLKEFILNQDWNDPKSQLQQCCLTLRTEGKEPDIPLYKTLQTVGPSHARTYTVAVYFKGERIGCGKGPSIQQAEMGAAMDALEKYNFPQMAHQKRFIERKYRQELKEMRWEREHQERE
Kind of assay: reconstitution by mixing purified proteins.

B1: G4 fragment of DGCR8 (amino acids 285–750), dimeric (domain or fragment, human, UniProt Q8WYQ5 285-750, looked up)
chain: MTKIKTVLKSRGRPPTEPLPDGWIMTFHNSGVPVYLHRESRVVTWSRPYFLGTGSIRKHDPPLSSIPCLHYKKMKDNEEREQSSDLTPSGDVSPVKPLSRSAELEFPLDEPDSMGADPGPPDEKDPLGAEAAPGALGQVKAKVEVCKDESVDLEEFRSYLEKRFDFEQVTVKKFRTWAERRQFNREMKRKQAESERPILPANQKLITLSVQDAPTKKEFVINPNGKSEVCILHEYMQRVLKVRPVYNFFECENPSEPFGASVTIDGVTYGSGTASSKKLAKNKAARATLEILIPDFVKQTSEEKPKDSEELEYFNHISIEDSRVYELTSKAGLLSPYQILHECLKRNHGMGDTSIKFEVVPGKNQKSEYVMACGKHTVRGWCKNKRVGKQLASQKILQLLHPHVKNWGSLLRMYGRESSKMVKQETSDKSVIELQQYAKKNKPNLHILSKLQEEMKRLAEEREETR
As to B1, the binding result is listed as “binds”.

Source of the values: PMC10770632 (STAR Protocols, 2023).
